Laboratory results reported in a protein production outcome set (Wang et al. 2014).

Test: label from the status in PepcDB records

Sequence	protein production
MQPPSHAPRQLAAADLAVGQVVAQREIRLDAQAFAQFAALTGDAHPIHYDAGYAQRQGLRAPIAHGLLLVAISALGATPLSAQLHDAMVAMVGVEAVFMRPVYVDETVQCVYRVAQIEHVAKGRSKTTIAVSIHTTDAPPDAARQAHCVVHLTFLLKTHLQG	failed
MQPTSITVASYNLRNANGGDSINGNGWGQRYPVIAQIVQYHDFDIFGTQECFIHQLKDMKEALPGYDYIGVGRDDGKEKGEHSAIFYRTDKFDVIEKGDFWLSETPDVPSKGWDAVLPRICSWGHFKCKDTGFEFLFFNLHMDHIGKKARVESAFLVQDKMKELGKGKELPAILTGDFNVDQTHQSYDAFVSKGVLCDSYEKAGFRYAINGTFNDFDPNSFTESRIDHIFVSPSFQVKRYGVLTDTYRSIVGKGEKKQANDCPEEIDIKTYQARTPSDHFPVKVELEFDQRQQKLEHHHHHH	not failed
MQPWTQIYTPLGSLWLSALAAAIPILFFFVALAVLRMKGHVAAAVTLALALAVAIFAYGMPAQQAFAAAGFGFAYGLWPIAWIIVTAVFLYKIVVKTGQFDVIRASVLSITDDQRLQMLLIGFAFGAFLEGAAGFGAPVAITAALLVGLGFNPLYAAGLCLIANTAPVAFGAMGIPIIVAGQVTGIDPMHIGAMAGRQLPLLSLAVPFWLVFMMDGAKGVRETWPAALVVGGSFAVTQYFTSNHIGPELPDITSALVSLISLAAFLRVWQPRSASQAAGGTVAAGGTVAMAGFGGGMGAPASRKASPYTFGQTVRAWAPFGILTAIVTVWSLAPFKALFAGNGALAGTVLKFKVPMLDQLVIKSAPIVASPKPYEAVLKLDLLSAVGTAILLTAIISAVLLRMKPSDAITTFKETLLELRRPIASIGLVLAFAFVANYSGMSSTLALLLAGTGAAFPFFSPLLGWLGVFLTGSDTSSNALFCSLQHTTAHQIGVSDTLLVAANTTGGVTGKMISPQSIAVACAATGLVGKESELFRFTVKHSLLFAAIVGVITMIQAYWLTGMIPG	failed
MQQSEHFSFGEQTEIEDIGGGLKRQMLGFNHELMAVKIWFDKGAEGYVHAHRHSQVSYVVEGEFHVNVDGVIKVLTAGDSFFVPPHVDHGAVCPTGGILIDTFSPAREDFVEGLS	not failed
MQRFVLRDWHYRGLSMSLMAQTDKPNIVIIMTDQQRADLCGREGFPLAVTPYVDQLAQENVWFNKAYTVAPASSPARCSMFTGRFPSATHVRTNHNIPDIFFEQDLVGVLKENGYKTALVGKNHAYLKPADLDFWSEYGHWGKNKKTTPEEKETARFLNQKARGQWLEPSPIPVEEQHPAKIVNETLSWIESQKENPFFVWVSFPEPHNPYQVCEPYYSMFSPDKLPVLKTSRKDLEKKGEKYRILAELEDASCPNLEQDLPRIRANYIGMIRLIDDQIKRLIESLKASGQFENTIFVVLSDHGDYWGEYGLIRKGAGLSESLARIPMVWAGYHVKNQSAPMDSHVSIADIFPTLCSAIGAKIPAGVQGRSLWPMLTGKEYPKEEFSSIVVQQGFGGAHVGLDSSLTFEQEGALTPGKIAYFDELNTWTQSGTSRMVRKDDWKLVMDNYGNGELYNLKKDPSEVDNLFGKKKYTAVQTELLTKLVAWELRLQDPLPLPRKRYHFKQDPYNYLQPEQLEHHHHHH	failed
MQRLLLASSLLLALSACSDKSAPANTADAAAPAAAPAATAPATAPELIPRDALFGNPERASVRISPDGKYLSWVAPLDGVLNVWVAPVDAPDKARAITKDTARGIRSYYWTYHSDTLLYLRDTGGDEDFHLYAVNLSDGSSKDLTPFKKTNAEVYGISDQHPDAIMVGMNDRDAKWHDLYKVELASGTRTLVQKNTDSLDSYLLDGNYQLRYATRATDDAGRELLVPEGKGWKSVDRIPFEDVTNTAPAGLTDDGKTLYMLDSRNRDTAALYAIDTASNARTLLFEDARADAGSTLNDPKTGVVQAVSTDYLREEWKTLDTSIAADLQKLKSLGPGDAGIAARTLDDRTWIVAYSAAETPLTYYRYDRADGGKLTKLFSARPALEGKPLVPMWPQEIAARDGLKLVSYLSLPAEADSNHDGKADKAVPLVLFVHGGPWARDSYGYGAYEQWLANRGYAVLSVNFRGSTGFGKAFTNAGNGEWAGKMHYDLLDAVQWAVKQGVTTPQDVAIMGGSYGGYATLVGMTFTPDAFKCGVDIVGPANLNTLLGTVPPYWASFYKQLTKRMGDPATAAGKQWLTERSPLSHVDKISKPLLIGQGANDPRVKQAESDQIVNAMKAKNIPVTYVLFPDEGHGFQRPENSKAFNAVTEGFLSQCLGGRAQPIGADFEGSSITVPEGADRITGLADALKTHTQAIRK	failed
MQRQGSGGGSAVIRVRVAGGVLLAAHLMLVVWITLRPLDVPWVSPANLHPFAGIRADLALGPREAVRRIGEGLGLLAPLGVLLPMVAGRLAVSPLASLTRTVAAGALISLGIELLQTGVPGQVVDVDSLLLNTVGVALAHLAIVPAGRARLRRRAETRRRAALGREELSQGLTPTIPRVGIAP	failed
MQRRLERFDAKLVQSGLDALLVTGQNNIYYLTDFWGTNATVFITKNRRLFLTDSRYTLIAKQSVHGFDIIESKDPLKDIVKFVEVDKLETIGFDNQVSFAYYQALQAIFEGYTLSPQTNFMEELRMIKDEKELATIRKACSISDRAFTDVLDFIKPGQTTELQVANFLDFRMREYGASGISFESIIASGYRSAMPHGVASDKVIQSGETLTMDFGCYYNHYVSDMTRTIHIGETTDEEREIYDIVLRSNRALIDATKAGMTRRDYDKVARDVIVEAGYGDYFTHGIGHGIGLDIHEIPYFGNSDETIEAGMVLTDEPGIYLADKYGVRIEDDIIITENGCEVITLAPKELIVL	failed
MQRYETTSVQNITQQYVHWFRHSAPYINAHRNKTLVLMFGGEAVQHPNFQHIIHDIALLHSLGIRLILVHGARPQINQNLQEKQIETPIHLHRRVTTRESLACVMNAVGSIRLEIEALLSMGLANSPMFGARIDVVSGNFVTAKPYGIRDGVDFQLTGEVRAIDTDAIQRHLDNHNIVVLGPTGYSTTGEVFNLLAEEVATKTATALHADKLIFLGKKQGLLSDQGKLLRELTPQQLEPYIKHFQQLDHEMALHLQGAQTASLSGVHRVHLISYAYDGALIEELFTRDGIGTMITDAHYEDVRTATIQDVGGLINLLRPLEEEGILVYRSRERLESEISQFAVIERDGMILACAALYPIPTAKNEIRSAEIACVAVDPAYRKSNRGSQILHFLEEKARQEGILQLFVLTTRTAHWFLEHGFQTASVDDLPSARQELYNYQRNSLVFKKILM	failed
MQSKAHALTFTVLPITQKTDQWSVKVSEAKNVKEFTRPHKGEYQVYSLGSQKYRGKSSYSGCAIVLEHHHHHH	not failed
MQSSLSFSCGVKSTMAKSPVEVNLIPIEATPETFAEYGQVIEASRDGAGYGPNDAQLDLSKGIPRLYILRLKETPLGFFKITHHAKVTQCLGSIGGDIWYMGVAKPSLIEDDDDGRRVDTVKAKSGHLYIPPEVEEIRVFRFSGPKFVKLHRGTWHAGPLFSGSSIMDFYNLELSNTNVVDHTSHDFTKNNGVSFRFDT	failed
MQSTDLGNKESGKIWHRKPSPATHDGIIVNIVHSTSEYHPKVLRFLNVAFDGSGDSFIAGDHQGNIYVFDLHGNRFNLVQRTAQACTALAFNLRRKSEFLVALADYSIKCFDTVTKELVSWMRGHESSVCSISVHASGRYAITTSSDTAQLWDLDTFQRKRKLNIRQSVGIQKVFFLPLSNTILSCFKDNSIFAWECDTLFCKYQLPGPPEGSNILYKVFAVTRDGRILAAGGKSNHLHLWCLEATGLFRIIQMPAKVRAVRHLEFLPDSFDAGSNQVLGVLSQDGIMRFVNIQTCKLLFEIGTVEEGISSSVISPHGRYIASIMENGSLNVYSVQALTQEINKPPPPLVKVIEDLPSNTVSSSNLKMKIMPGRVQRPARCKESKIPTRVLKQDLTGDLENKENELSEGLNKKRLQILLKGYGEYPTKYRMFIWRSLLQLPENHTAFSSLVDKGTHAAYLSLQKKYPIKSRKLLRVLQRTLSALAHWSAIFSDTPYLPLLAFPFVKLFQNNQLICFEVVATLIINWCQHWFEYFPNPPINILSMIENVLAFHDKELLQHFIDRDITSQVYAWPLLETLFSEVLTREEWLRLFDNIFSNHPSFLLMTVVAYSTCSRAPLLNCTLKNDFEYFFHHRNNLDINVVIREVYHLMETTPADIHPNSMLDAFVALTKGQYPIFNQYPKFIVDYQTREWERIRNDELDFLRERQTVENMQAEVDEQRAKDEAWYQKQELLRRAEETRREILLQEEEKMAQQRQRLAAVKRELEIKEIHLQDAARRRLLKLQQDQREMELRRLEDEIERKVQMRDQEIAATAKDLEIRQLELEAQKRLYEKYSFSLSFMQNIV	failed
MQTDEKLHVLLADDDPIMLARLSRQLEADGHHVASRRDGETALAYALEHQPEMVITDWHMKPMNGLELCRALRESALGGNVYIVMLTASESEDALVEAFGAGIDDYVIKPPSVRVLKARIRAGQRIITLHKKLARERKEIERYSSELAAANRRLELMAHTLEHHHHHH	failed
MQTLNDIYLAYLDSLNHQAFDELGTFVDDNVEHNGRPFGLSGYRDMLVKDFADIPDLRFEAEILVSDATRLAARLFFDCTPKSIFMDLPVNGRRVQFCEHVFYDFEQAKIRRVWSVLDKVAIERQLG	not failed
MQTSFCVLVSIIERMPTWNDIKVRNPQHSHNYAKRWENLEAEGNDINGEARLIDALVQRGSKILDAGCGQGRVGGYLSARGHIVTGIDIDDYLISEAEKKFPSATWHVGDLGSESIPDQGFDIAVCAGNVITFIEPDKQEAALAHIFEALRPNGRCIIGFGAGRGYVFPQFFEDARNVGFVIENNFESWGLNPLTNRSQFLVAFLRKPELEHHHHHH	failed
MQVELIIKNLKVYNSYFKKFIKSDVLINEGKFLHIGKGYEDRLWSENIIDGEDKYIIPGLIDIHMHIESSMTIPREFSKAAIKHGVTTVVADPHEIANVFGVRGIEEFIKFKGNLDIFYGILEHHHHHH	failed
MQVFIMRHGDAALDAASDSVRPLTTNGCDESRLMANWLKGQKVEIERVLVSPFLRAEQTLEEVGDCLNLPSSAEVLPELTPCGDVGLVSAYLQALTNEGVASVLVISHLPLVGYLVAELCPGETPPMFTTSAIASVTLDESGKGEFNWQMSPCNLKMAKAI	not failed
MQVFLQGLLFGIVYIAPIGMQNLFVVSTAIEQPLQRALRVALIVIAFDTSLSLACFYGVGRLLQTTPWLELGVLLIGSLLVFYIGWNLLRKKATAMGTLDADFSYKAAILTAFSVAWLNPQALIDGSVLLAAFRVSIPAALTHFFMLGVILASIIWFIGLTSLISKFKHLMQPRVLLWINRICGGIIILYGVQLLATFITKI	failed
MQVISPSSPAPRFAGKERFSEVYGELNDDFGSKLKISSKEEENRDDDSWWNQNGTDKDDEGREEDFSFASVNADNSPITADEAFEDGQIRPVYPLFNRNIFFDDPEEKTLRSPLKKLFVESTTTEEEEEESDTVGPYCSWTNRTVEQASPETCRKSNSTGFSKLWRFRDLVLRSNSDGKDAFVFLSNGSSSTSSTSSTAARLSGVVKSSEKGKEKTKTDKKKDKMRTKSAHEKLYMRNRAMREEGKRRSYLPYKHVGFFTNVNGLTRNVHPY	failed
MQVITSVKEAKQIVKDWKSHQLSIGYVPTMGFLHDGHLSLVKHAKTQDKVIVSIFVNPMQFGPNEDFSSYPRDLERDIKMCQDNGVDMVFIPDATQMYLKNFSTYVDMNTITDKLCGAKRPGHFRGVCTVLTKFFNILNPDIVYMGQKDAQQCVVVRHMVDDLNFDLKIQICPIIREEDGLAKSSRNVYLSKEERKASLAISQSIFLAEKLVREGEKNTSKIIQAMKDILEKEKLIKIDYIELVDFNTMENIENITDNVLGAVAAFVGKTRLIDNFLVQGLK	not failed
